# Reference: paper PMC3546842, “Using BAC transgenesis in zebrafish to identify regulatory sequences of the amyloid precursor protein gene in humans”
# T1: E4BP4-DBD (NFIL3 DNA-binding domain) (zebrafish, UniProt Q68EL6 18-164)
# T1 sequence: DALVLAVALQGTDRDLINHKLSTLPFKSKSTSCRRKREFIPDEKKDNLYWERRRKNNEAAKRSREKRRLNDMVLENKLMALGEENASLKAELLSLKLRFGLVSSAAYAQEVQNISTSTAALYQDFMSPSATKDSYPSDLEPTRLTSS
# B1: probe b (dsDNA)
# DNA 1: GTAAGCTTTTATGTAAGTATTTTG
# DNA 2: CAAAATACTTACATAAAAGCTTAC
# B2: probe e (E4BP4 site E11) (dsDNA)
# DNA 1: TGGTCAGTATTGTTATTACATAAGACATCAGCAAT
# DNA 2: ATTGCTGATGTCTTATGTAATAACAATACTGACCA
# B3: probe c (dsDNA)
# DNA 1: ATTAAATTTTATGTAAAAATATGT
# DNA 2: ACATATTTTTACATAAAATTTAAT
# B4: probe d (dsDNA)
# DNA 1: ATTGGTTCATTATGTAACTTTCCCAT
# DNA 2: ATGGGAAAGTTACATAATGAACCAAT
# B5: probe a (dsDNA)
# DNA 1: AATAAATGTTACATAATCCAAAGTC
# DNA 2: GACTTTGGATTATGTAACATTTATT
# Biological target: T1, E4BP4-DBD (NFIL3 DNA-binding domain)
# Assay: EMSA; not given; EMSA performed as in an earlier cited paper (ref 25)
# Conditions: protein: recombinant; tags: N-terminal His6; additional pET-30a(+) vector residues; chain copies: 2
row,Binder,binding result
1,B1,binds
2,B2,binds
3,B3,binds
4,B4,binds
5,B5,binds
